Data on four molecules can be found in US20150320880A1, “ANTIBODY DRUG CONJUGATES” (NOVARTIS AG, priority 2013, published 2015).

One assay concerns Uke-1 cells. The assay can be described thus: ADCC activity in vitro (Calcein release, NK3.3 effector cells). In kind it is cell-based. Conditions: effector to target ratio 20 to 1. As for the experimental part:
In brief, Uke-1 cells were stained with Calcein acetoxy-methyl ester (Calcein-AM; Sigma-Aldrich catalog #17783-5MG, St. Louis, Mo.), washed twice, pipetted into a 96-well microtiterplate (96 well, U-bottomed, clear plastic; Corning Costar, catalog #650 160, Tewksbury, Mass.) at a concentration of 5000 cells per well and pre-incubated for 10 min with a serial dilution of the above mentioned antibodies and proteins (from 50,000 to 0.003 μg per ml) before adding the effector NK3.3 cells for 1 hour in an effector to target ratio of 20 to 1. In order to calculate the antibody specific lysis of the target cells, a parallel incubation of target cells only without antibody or effector cells served as a baseline and negative control, whereas the positive control or maximal lysis or hundred percent specific lysis was determined by lysis of target cells only with a 1% Triton-X 100 solution. […] Following a co-incubation of target and effector cells, the microtiterplate was centrifuged and an aliquot of the supernatant fluid was transferred to another microtiterplate (96 well, flat-bottomed, black with clear bottom; (Corning Costar, catalog #3904, Tewksbury, Mass.) and the concentration of free Calcein in solution was determined with a fluorescence counter (Victor 3 ® multilabel counter, Perkin Elmer, Waltham, Mass.).

The target in assay [1] is T1, Human cKIT D1-5 (human cKIT tr. variant 2, residues 26-520, C-terminal His tag) (human, UniProt P10721 26-524).
T1 construct: also called human cKIT ECD; Human c-Kit ECD
T1 sequence (P10721 other isoform, or with tags, fused parts or gaps mutant limits assumed): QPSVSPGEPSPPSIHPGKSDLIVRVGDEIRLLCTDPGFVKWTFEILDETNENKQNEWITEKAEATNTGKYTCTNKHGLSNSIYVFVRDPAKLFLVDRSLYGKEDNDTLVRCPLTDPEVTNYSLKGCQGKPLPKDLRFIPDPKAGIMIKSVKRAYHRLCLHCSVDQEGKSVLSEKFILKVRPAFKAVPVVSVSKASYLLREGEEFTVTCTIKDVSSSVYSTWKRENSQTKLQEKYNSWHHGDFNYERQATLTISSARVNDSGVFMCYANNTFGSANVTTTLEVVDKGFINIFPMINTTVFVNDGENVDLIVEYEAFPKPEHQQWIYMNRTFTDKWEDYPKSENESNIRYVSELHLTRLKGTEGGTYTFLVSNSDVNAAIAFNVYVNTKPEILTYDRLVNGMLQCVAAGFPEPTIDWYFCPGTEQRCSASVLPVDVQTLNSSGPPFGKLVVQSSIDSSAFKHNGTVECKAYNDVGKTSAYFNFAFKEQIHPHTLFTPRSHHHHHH
Nature of the assay: SPR (Biacore T100), CM5 chip, method as in Example 7; unconjugated antibody. On the technique in general: In SPR one partner is held on a chip, and binding of the other changes the refractive index at the surface.

Assay [2] addresses T2, Rat cKIT D1-5 (residues 25-526, C-terminal mFc) (rat).
T2 construct: The entry includes the linker and mouse Fc tag; also called rat cKIT-mFc
T2 chain: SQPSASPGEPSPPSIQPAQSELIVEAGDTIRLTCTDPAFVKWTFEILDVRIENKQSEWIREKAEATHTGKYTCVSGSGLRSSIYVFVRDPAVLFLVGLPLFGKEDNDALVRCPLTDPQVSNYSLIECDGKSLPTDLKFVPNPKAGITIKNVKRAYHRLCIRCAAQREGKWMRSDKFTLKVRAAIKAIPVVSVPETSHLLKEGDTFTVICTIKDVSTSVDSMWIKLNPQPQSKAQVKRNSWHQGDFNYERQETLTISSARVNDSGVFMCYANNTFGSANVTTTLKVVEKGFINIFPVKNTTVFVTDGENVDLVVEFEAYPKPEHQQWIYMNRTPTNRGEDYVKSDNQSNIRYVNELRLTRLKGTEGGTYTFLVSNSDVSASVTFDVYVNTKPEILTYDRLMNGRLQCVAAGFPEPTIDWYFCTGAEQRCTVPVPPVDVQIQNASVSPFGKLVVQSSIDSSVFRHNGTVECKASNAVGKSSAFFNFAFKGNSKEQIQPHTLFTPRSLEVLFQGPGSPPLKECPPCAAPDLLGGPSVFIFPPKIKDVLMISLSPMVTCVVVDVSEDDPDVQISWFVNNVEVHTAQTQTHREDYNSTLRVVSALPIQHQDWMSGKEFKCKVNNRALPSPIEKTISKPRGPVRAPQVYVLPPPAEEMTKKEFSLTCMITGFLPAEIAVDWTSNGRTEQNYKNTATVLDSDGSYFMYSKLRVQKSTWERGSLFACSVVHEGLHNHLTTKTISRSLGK
The assay can be described thus: SPR (Biacore 2000), antibody captured on anti-human Fc.

In assay [3] the target is T3, Cynomolgus monkey cKIT D1-5 (residues 25-520, C-terminal His tag) (cynomolgus monkey, UniProt P10721 25-520 (human entry)).
T3 construct: the signal peptide was not part of the protein in the assay; also called cyno cKIT; cynomolgus monkey ECD
T3 chain: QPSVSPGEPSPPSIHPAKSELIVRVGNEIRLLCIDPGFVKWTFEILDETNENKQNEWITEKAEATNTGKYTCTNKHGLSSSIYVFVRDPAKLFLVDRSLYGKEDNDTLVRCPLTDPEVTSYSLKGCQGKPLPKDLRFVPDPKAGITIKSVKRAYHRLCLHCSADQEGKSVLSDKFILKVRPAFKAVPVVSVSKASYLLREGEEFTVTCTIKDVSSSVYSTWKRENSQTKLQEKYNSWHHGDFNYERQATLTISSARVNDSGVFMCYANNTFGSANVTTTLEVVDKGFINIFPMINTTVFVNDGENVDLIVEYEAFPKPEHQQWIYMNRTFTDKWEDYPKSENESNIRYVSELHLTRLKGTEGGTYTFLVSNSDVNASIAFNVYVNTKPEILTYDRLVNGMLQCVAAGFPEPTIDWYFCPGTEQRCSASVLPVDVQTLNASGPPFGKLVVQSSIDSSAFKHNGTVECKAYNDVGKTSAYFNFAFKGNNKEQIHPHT
Nature of the assay: SPR (Biacore 2000), antibody captured on anti-human Fc, cKIT ECD as analyte, 25 C, 1:1 fit.

In assay [4] the target is T4, Mouse cKIT ECD, C-terminal 6x His (Sino Biological Inc, catalog number 50530-M08H) (mouse, UniProt P05532 25-527).
T4 construct: extracellular domain; Bought protein
T4 sequence (looked up): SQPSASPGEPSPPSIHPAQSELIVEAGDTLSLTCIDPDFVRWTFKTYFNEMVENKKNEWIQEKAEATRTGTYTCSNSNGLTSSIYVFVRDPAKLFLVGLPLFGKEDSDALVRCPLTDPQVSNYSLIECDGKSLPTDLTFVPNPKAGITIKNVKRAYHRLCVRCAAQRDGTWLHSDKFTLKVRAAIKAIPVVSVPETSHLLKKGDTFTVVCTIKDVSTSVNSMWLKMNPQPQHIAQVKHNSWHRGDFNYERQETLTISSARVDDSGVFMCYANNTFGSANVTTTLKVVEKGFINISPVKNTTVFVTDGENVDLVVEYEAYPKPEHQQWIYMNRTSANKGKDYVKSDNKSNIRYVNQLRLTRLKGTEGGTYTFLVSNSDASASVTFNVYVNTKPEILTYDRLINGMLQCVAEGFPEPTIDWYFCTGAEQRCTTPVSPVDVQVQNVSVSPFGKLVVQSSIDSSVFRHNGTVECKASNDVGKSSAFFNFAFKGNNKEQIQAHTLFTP
The assay is described as above.

For assay [5], the target named is T1, Human cKIT D1-5 (human cKIT tr. variant …). The description is as above.
Assay [6] has as its target T4, Mouse cKIT ECD, C-terminal 6x His (Sino …). Nature of the assay: SPR (Biacore 2000), antibody captured on anti-human Fc.
For another assay, the target named is SCF binding to cKIT (Homo sapiens, UniProt P10721). Nature of the assay: Competition assays (ELISA and FACS) of SCF binding to cKIT.
Chain of SCF binding to cKIT (P10721 26-524 limits assumed): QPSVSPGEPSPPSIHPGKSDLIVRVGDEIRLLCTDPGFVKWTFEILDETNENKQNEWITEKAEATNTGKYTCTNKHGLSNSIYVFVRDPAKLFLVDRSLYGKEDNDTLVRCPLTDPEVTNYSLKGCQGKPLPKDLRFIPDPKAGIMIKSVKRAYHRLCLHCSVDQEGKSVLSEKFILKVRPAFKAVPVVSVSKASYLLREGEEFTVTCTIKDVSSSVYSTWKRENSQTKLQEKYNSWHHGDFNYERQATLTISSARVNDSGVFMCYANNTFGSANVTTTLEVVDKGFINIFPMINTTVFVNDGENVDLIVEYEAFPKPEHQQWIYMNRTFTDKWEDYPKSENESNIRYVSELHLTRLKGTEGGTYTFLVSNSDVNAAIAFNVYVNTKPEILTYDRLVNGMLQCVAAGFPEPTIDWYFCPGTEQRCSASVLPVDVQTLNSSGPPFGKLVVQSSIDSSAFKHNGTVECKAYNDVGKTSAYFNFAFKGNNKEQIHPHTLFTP
A further assay concerns the target T5, human cKIT ECD (Homo sapiens, UniProt P10721).
T5 construct: Human cKIT tr. variant 2, residues 26-520-TAG; made in house; host or cells: HEK293 derived cell lines (293FS), transient transfection
The assay can be described thus: SPR (Biacore 2000) affinity measurement. Conditions: 25° C. In kind it is binding. Here is the method: (§1) Affinity of the antibodies to cKIT species orthologues and also to cKIT was determined using SPR technology using a Biacore® 2000 instrument (GE Healthcare, Pittsburgh, Pa.) and with CM5 sensor chips.
(§2) Briefly, HBS-P (0.01 M HEPES, pH 7.4, 0.15 M NaCl, 0.005% Surfactant P20) supplemented with 2% Odyssey® blocking buffer (Li-Cor Biosciences, Lincoln, Nebr.) was used as the running buffer for all the experiments. The immobilization level and analyte interactions were measured by response unit (RU). Pilot experiments were performed to test and confirm the feasibility of the immobilization of the anti-human Fc antibody (Catalog number BR100839, GE Healthcare, Pittsburgh, Pa.) and the capture of the test antibodies.
(§3) For kinetic measurements, the experiments were performed in which the antibodies were captured to the sensor chip surface via the immobilized anti-human Fc antibody and the ability of the cKIT proteins to bind in free solution was determined Briefly, 25 μg/ml of anti-human Fc antibody at pH 5 was immobilized on a CM5 sensor chip through amine coupling at flow rate of 5 μl/minute on all two flow cells to reach 10,500 RUs. 0.1-1 μg/ml of test antibodies were then injected at 10 μl/min for 1 minute. Captured levels of the antibodies were generally kept below 200 RUs. Subsequently, 3.125-50 nM of cKIT receptor extracellular domains (ECD) were diluted in a 2-fold series and injected at a flow rate of 40 μl/min for 3 min over both reference and test flow cells. Table of tested ECDs is listed below. Dissociation of the binding was followed for 10 min. After each injection cycle, the chip surface was regenerated with 3 M MgCl2 at 10 μl/min for 30 s.

The target of another assay is mouse cKIT ECD. The assay can be described thus: SPR (Biacore 2000) affinity measurement. In kind it is binding. Conditions: 25° C. As for the experimental part:
as §1, §2, §3

For assay [7], the system named is GIST T1 subcutaneous tumor xenograft. Conditions: Example 28, single i.v. dose: 9P3 10 mg/kg, IgG1-MCC-DM1 5 mg/kg, IgG1-SPDB-DM4 10 mg/kg, 9P3-MCC-DM1 5 and 10 mg/kg, 9P3-SPDB-DM4 2.5 and 5 mg/kg. Here is the method: The anti-tumor activity of anti-cKIT ADCs was evaluated in several tumor xenograft models.
Assay [8] addresses T6, Human cKIT D1-3 (human cKIT tr. variant 1, residues 26-311, tagged) (human, UniProt P10721 26-311).
T6 construct: also called cKIT subdomains 1-3
The assay can be described thus: ELISA on coated cKIT subdomain constructs (Example 6).

T6 sequence (P10721 other isoform, or with tags, fused parts or gaps mutant limits assumed): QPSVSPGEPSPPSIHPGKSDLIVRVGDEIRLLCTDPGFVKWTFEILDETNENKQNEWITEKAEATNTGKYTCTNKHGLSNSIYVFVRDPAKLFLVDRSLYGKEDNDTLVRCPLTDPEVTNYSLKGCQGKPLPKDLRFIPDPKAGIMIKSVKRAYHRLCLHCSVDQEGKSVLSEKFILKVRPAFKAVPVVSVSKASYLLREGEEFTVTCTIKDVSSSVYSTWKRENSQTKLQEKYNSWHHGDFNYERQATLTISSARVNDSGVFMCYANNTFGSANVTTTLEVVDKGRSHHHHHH

Consider MabCampath [reference compound], for which the “ADCC killing of target cells” value in the assay with Uke-1 cells is on record as “mediated ADCC killing of the target cells”.

B1: 20376 (antibody, human IgG1, lambda, V domains shown)
VH: QVQLVQSGAEVKKPGSSVKVSCKASGGTFSSYAISWVRQAPGQGLEWMGGIIPMSGRTTYAQKFQGRVTITADESTSTAYMELSSLRSEDTAVYYCARDYGPEAPDYGQSTSYFWYYAFDPWGQGTLVTVSS
VL: DIELTQPPSVSVSPGQTASITCSGDNIPSYFVHWYQQKPGQAPVLVIYDDNDRPSGIPERFSGSNSGNTATLTISGTQAEDEADYYCSSWDQDTVVFGGGTKLTVLG
notes: human IgG1 lambda
As a reminder, the Kd is the equilibrium constant for the complex coming apart. In the case of B1, the Kd in assay [1] came out at 9.1 nM; in [3] it was 4.8 nM; in [4], 2.5 nM; in assay [5] it was 9.1 nM. Also, the binding result in assay [2] is “no binding (tested: 3.125-50 nM of cKIT ECD injected)”.

B2: anti-cKIT antibody 9P3 (antibody, V domains shown)
VH: EVRLVESEGGLVQPRSSMKLSCTASGFTFSDYYMAWVRQVPEKGLEWVANINYDGSSTYYLDSLKSRFIISRDNAKNILYLQMSSLKSEDTATYYCARGDYYGTTYWYFDVWGTGTTVTVSS
VL: DIQMTQTTSSLSASLGDRVTISCRASQDISNYLNWYQQKPDGTVKLLIYYTSRLQSGVPSRFSGSGSGTDYSLTISNLEQEDIATYFCQQGKKLWSFGGGTKLEIKR
notes: Hybridoma-derived mouse variable domains; also called murine 9P3
As for B2, the binding result in assay [6] and in assay [2] was “no binding (tested: 3.125-50 nM of cKIT ECD injected)” throughout. Moreover, the “blocking of SCF binding to cKIT” value in the assay with SCF binding to cKIT is “partial blocking of SCF binding to cKIT”. Moreover, in the assay with human cKIT ECD, the “Affinity human cKIT (nM)” value is “nanomolar level”. The “Affinity mouse cKIT (nM)” value on mouse cKIT ECD is “Not reactive”. Binding in assay [5] was characterised by a dissociation constant (Kd) of 20 nM. For the same molecule, in [7], the “anti-tumor activity (tumor volume)” value is “Neither the control non-specific IgG1 ADCs nor the unconjugated 9P3 were efficacious”.

B3: NEG026 (antibody, human IgG1, kappa, V domains shown)
VH: EVQLVESGGGLVQPGGSLRLSCAASGFTFSDYYMAWVRQAPGKGLEWVANINQNTGSTYYVDSVQGRFTISRDNAKNSLYLQMNSLRAEDTAVYYCARGDYYGTTYWYFDVWGQGTTVTVSS
VL: EIVMTQSPATLSLSPGERATLSCRASQDISNYLNWYQQKPGQAPRLLIYYTSRLQSGIPARFSGSGSGTDYTLTISSLEPEDFAVYYCQQGKKLWSFGGGTKVEIKR
notes: Humanized, optimized variant of 9P3; human IgG1 kappa
Take B3: the binding result in assay [6] is recorded as “no binding (tested: 3.125-50 nM of cKIT ECD injected)”; in [2] it was “no binding (tested: 3.125-50 nM of cKIT ECD injected)”; in assay [8], “binds”.
